# T1: HPV 16 E7 mutant C58G/C91G (human papillomavirus type 16, UniProt P03129 1-98)
# T1 sequence: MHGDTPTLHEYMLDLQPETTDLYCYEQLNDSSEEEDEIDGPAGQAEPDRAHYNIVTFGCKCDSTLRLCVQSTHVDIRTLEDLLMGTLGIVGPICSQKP
# T2: HPV 16 E7 mutant C91G (human papillomavirus type 16, UniProt P03129 1-98)
# T2 sequence: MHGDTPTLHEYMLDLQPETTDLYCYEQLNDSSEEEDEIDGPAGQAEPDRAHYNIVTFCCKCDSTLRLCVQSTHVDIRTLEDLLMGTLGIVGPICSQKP
# T3: HPV 16 E7 mutant C58G (human papillomavirus type 16, UniProt P03129 1-98)
# T3 sequence: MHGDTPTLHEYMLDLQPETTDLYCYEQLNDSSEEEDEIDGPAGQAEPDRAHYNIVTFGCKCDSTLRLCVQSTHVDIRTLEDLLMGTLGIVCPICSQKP
# T4: HPV 11 E7 protein (human papillomavirus type 11, UniProt P04020 1-98)
# T4 construct: also called low-risk HPV type 11 E7
# T4 sequence: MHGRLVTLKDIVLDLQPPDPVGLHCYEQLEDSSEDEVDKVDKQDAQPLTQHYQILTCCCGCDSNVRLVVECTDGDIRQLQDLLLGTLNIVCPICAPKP
# T5: HPV 16 E7 derived synthetic 13mer peptide 44 (amino acids 86 to 98) (human papillomavirus type 16)
# T5 construct: Immobilised on a peptide microarray
# T5 peptide: TLGIVCPICSQKP
# T6: HPV 16 E7 derived synthetic 13mer peptide 43 (amino acids 85 to 97) (human papillomavirus type 16)
# T6 construct: Immobilised on a peptide microarray
# T6 peptide: GTLGIVCPICSQK
# T7: HPV 18 E7 protein (human papillomavirus type 18, UniProt P06788 1-105)
# T7 construct: also called E7 protein of HPV 18
# T7 sequence: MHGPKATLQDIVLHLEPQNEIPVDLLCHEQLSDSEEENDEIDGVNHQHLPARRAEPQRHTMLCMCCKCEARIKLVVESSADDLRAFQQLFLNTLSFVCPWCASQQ
# T8: HPV 45 E7 protein (human papillomavirus type 45, UniProt P21736 1-106)
# T8 construct: also called E7 protein of HPV 45
# T8 sequence: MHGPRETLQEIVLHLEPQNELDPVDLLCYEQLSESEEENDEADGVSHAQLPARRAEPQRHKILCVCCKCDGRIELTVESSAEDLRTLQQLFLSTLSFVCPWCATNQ
# B1: monoclonal anti-HPV 16 E7 antibody of the present invention (rabbit monoclonal, hybridoma Klon 42-3-78, DSM ACC3034) (antibody, V domains shown)
# VH: QSLEESGGRLVTPGGSLTLTCTVSGIDLSTYEISWVRQAPGKGLEWIGIIGTSANTVYASWAKGRFTISKSSTTVDLRVTSLTTEDTATYFCARAYDEYGIHAFHPWGPGTLVTVSS
# VL: AQVLTQTPSPVSAAVGGTVTINCQASQSVYNAKNLAWYQQKPGQPPKLLIYQASTLASGVPSRFKGSGSGTQFTLTISGVQCDDAATYYCQGEFSCSSADCNVFGGGTEVVVKG
# notes: Rabbit IgG purified from hybridoma supernatant on Protein G; used plain or biotinylated; also called monoclonal antibody against HPV 16 E7; RabMab
# Key:
# [1] = target: T1, HPV 16 E7 mutant C58G/C91G; assay: indirect immunofluorescence on transiently transfected U-2OS cells
# HPV 16 E7 mutant C91G = target: T2, HPV 16 E7 mutant C91G; assay: as above
# HPV 16 E7 mutant C58G = target: T3, HPV 16 E7 mutant C58G; assay: as above
# HPV 11 E7 protein = target: T4, HPV 11 E7 protein; assay: direct ELISA, coated recombinant E7, biotinylated antibody
# [2] = target: T5, HPV 16 E7 derived synthetic 13mer …; assay: peptide microarray, anti-rabbit-Cy5
# Method: (§1) HPV 16 E7 epitopes were analyzed by JPT Peptide Technologies GmbH (Berlin, Germany) using peptide microarrays. […] The determination of peptide-antibody binding was performed by RepliTope-analysis where the peptide microarray was incubated with the primary antibody followed by a fluorescently labelled secondary antibody (anti-rabbit-Cy5). After washing the peptide microarrays were dried using a microarray centrifuge and scanned in a high resolution microarray scanning system with appropriate wavelength settings.
# [3] = target: T6, HPV 16 E7 derived synthetic 13mer …; assay: peptide microarray, anti-rabbit-Cy5
# Method: as §1
# HPV 18 E7 protein = target: T7, HPV 18 E7 protein; assay: confocal immunofluorescence on U-2OS cells overexpressing E7
# HPV 45 E7 protein = target: T8, HPV 45 E7 protein; assay: as above
binder,measurement,setting,value
B1,binding result,[1],no binding
same,binding result,HPV 16 E7 mutant C91G,no binding
same,binding result,HPV 16 E7 mutant C58G,no binding
same,binding result,HPV 11 E7 protein,no binding (tested: 2.5 and 10 ng coated E7 protein)
same,binding result,[2],binds
same,binding result,[3],binds
same,binding result,HPV 18 E7 protein,no binding (tested: 25 µg/ml)
same,binding result,HPV 45 E7 protein,no binding (tested: 25 µg/ml)

# From US20160237143A1 (OSTERREICHISCHE AKADEMIE DER WISSENSCHAFTEN, published 2016)
